Reference: patent US20260098088A1 (DISC MEDICINE, published 2026)

T1: membrane-bound human RGMc (human, UniProt Q6ZVN8 36-400)
T1 sequence: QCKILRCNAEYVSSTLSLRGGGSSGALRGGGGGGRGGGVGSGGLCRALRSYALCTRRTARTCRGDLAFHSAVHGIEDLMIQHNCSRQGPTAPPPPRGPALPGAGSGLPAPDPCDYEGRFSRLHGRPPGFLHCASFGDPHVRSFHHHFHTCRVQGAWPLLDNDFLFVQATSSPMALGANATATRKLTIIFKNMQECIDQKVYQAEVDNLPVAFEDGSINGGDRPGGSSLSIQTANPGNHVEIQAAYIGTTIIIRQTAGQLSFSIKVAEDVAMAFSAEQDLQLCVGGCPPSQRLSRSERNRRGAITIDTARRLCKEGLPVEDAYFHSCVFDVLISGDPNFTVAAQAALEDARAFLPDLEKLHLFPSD

T2: membrane-bound human RGMa (human, UniProt Q96B86 169-424)
T2 sequence (looked up): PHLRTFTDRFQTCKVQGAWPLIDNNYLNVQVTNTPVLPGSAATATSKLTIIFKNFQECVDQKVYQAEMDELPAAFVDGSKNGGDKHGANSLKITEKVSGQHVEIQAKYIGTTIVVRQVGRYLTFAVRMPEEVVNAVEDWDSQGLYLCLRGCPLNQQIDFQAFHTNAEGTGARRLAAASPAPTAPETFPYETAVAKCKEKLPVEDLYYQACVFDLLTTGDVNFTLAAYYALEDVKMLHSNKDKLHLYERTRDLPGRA


What was measured:
Assay in all cases: cell-based or functional assay
[1] = target: T1, membrane-bound human RGMc
[2] = target: T1, membrane-bound human RGMc; remark: listed apart in the source
[3] = target: T2, membrane-bound human RGMa

| Potency on membrane hRGMc (RGMc/BMP reporter assay) IC50 [1] | IC50 (nM), BMP reporter assay for RGMc [2] | Potency on membrane hRGMa (RGMa/BMP reporter assay) IC50 [3] | Binder |
| --- | --- | --- | --- |
| 1.36 nM | 1.36 nM |  | hHA-009 (antibody, human IgG1, kappa, L234A L235A, V domains shown) VH: EVQLVESGGGLVQPGGSLRLSCAASGFTFSNYGMNWVRQAPGKGLEWIGMIYYDSSEKHYADSVKGRFTISRDNSKNTLYLQMNSLRAEDTAVYYCAKGTTPDYWGQGTMVTVSS VL: DVVLTQSPLSLPVTLGQPASISCRSSQSLADSDGDTFLHWFQQRPGQSPRLLIYAVSHRFSGVPDRFSGSGSGTDFTLKISRVEAEDVGVYYCFQATHDPVTFGQGTKLEIKR |
| 0.52 nM | 0.0554 nM | 1.7 nM | hHA-011 (antibody, human IgG1, kappa, L234A L235A, V domains shown) VH: EVQLVESGGGLVQPGGSLRLSCAASGFTFSNYGMNWVRQAPGKGLEWIGMIYYDSSEKHYADSVKGRFTISRDNSKNTLYLQMNSLRAEDTAVYYCAKGSTPDYWGQGTMVTVSS VL: DVVLTQSPLSLPVTLGQPASISCRSSQSLEDSDGGTFLEWFQQRPGQSPRLLIYDVSSRFSGVPDRFSGSGSGTDFTLKISRVEAEDVGVYYCFQATHDPLSFGQGTKLEIKR |

Second part, the binder before the results:

| Binder | Potency on membrane hRGMc (RGMc/BMP reporter assay) IC50 [1] | IC50 (nM), BMP reporter assay for RGMc [2] | Potency on membrane hRGMa (RGMa/BMP reporter assay) IC50 [3] |
| --- | --- | --- | --- |
| hHA-008 (antibody, human IgG1, kappa, L234A L235A) heavy: not shown light: DVVLTQSPLSLPVTLGQPASISCRSSQSLEESDGYTFLHWFQQRPGQSPRLLIYEVSTRFSGVPDRFSGSGSGTDFTLKISRVEAEDVGVYYCFQATHDPLTFGQGTKLEIKRTVAAPSVFIFPPSDEQLKSGTASVVCLLNNFYPREAKVQWKVDNALQSGNSQESVTEQDSKDSTYSLSSTLTLSKADYEKHKVYACEVTHQGLSSPVTKSFNRGEC | 0.37 nM | 0.377 nM |  |
| hHA-004 (antibody, human IgG1, kappa, L234A L235A, V domains shown) VH: EVQLVESGGGLVQPGGSLRLSCAASGFTFSNYGMNWIRQAPGKGLEWIGMIYYDSSEKHYADSVKGRFTISRDNSKNTLYLQMNSLRAEDTAVYYCAKGTTPDYWGQGTMVTVSS VL: DVVLTQSPLSLPVTLGQPASISCRSSQSLESSDGDTFLEWFQQRPGQSPRLLIYDVSTRFSGVPDRFSGSGSGTDFTLKISRVEAEDVGVYYCFQVTHDPVTFGQGTKLEIKR | 0.31 nM | 0.312 nM | 2 nM |
